Consider 39 sequences from the supplement of paper PMC7877785.

± gives the uncertainty stated by the source.

The nature of the data set: self-splicing fitness, log relative to wild type (ln ratio); higher = more splicing; Tetrahymena group I intron in knt gene, E. coli kanamycin selection, DiMSum; sequences stand for … in CUCUCU…GGAGGGAAAAGUUAUCAGGCAUGCACCUGGUAGCUAGUCUUUAAACCAAUAGAUUGCAUCGGUUUAAAAGGCAAGACCGUCAAAUUGCGGGAAAGGGGUCAACAGCCGUUCAGUACCAAGUCUCAGGGGAAACUUUGAGAUGGCCUUGCAAAGGGUAUGGUAAUAAGCUGACGGACAUGGUCCUAACCACGCAGCCAAGUCCUAAGUCAACAGAUCUUCUGUUGAUAUGGAUGCAGUUCACAGACUAAAUGUCGGUCGGGGAAGAUGUAUUCUUCUCAUAAGAUAUAGUCGGACCUCUCCUUAAUGGGAGCUAGCGGAUGAAGUGAUGCAACACUGGAGCCGCUGGGAACUAAUUUGUAUGCGAAAGUAUAUUGAUUAGUUUUGGAGUACUCGUGGUCG
The essentials: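 The eight P1ex-region nucleotides of an intron in the knt kanamycin-resistance gene on pET-22b(+) were all randomised and the library put into E. coli BL21(DE3). Six replicate transformations were grown overnight at 37°C or 30°C on LB agar with or without 25 μg/mL kanamycin, together with 100 μg/mL carbenicillin, 50 μM IPTG and 0.2% rhamnose. Colonies were pooled and amplicon-sequenced on an Illumina HiSeq 2500. Fitness from DiMSum is the error-weighted combination of wild-type-normalised replicate fold changes, kanamycin over none.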

GGUAAGCAAUAUUACGCAAG: the “self-splicing fitness (ln)” value is -3.39 ± 0.26 (30 °C) and -2.03 ± 0.22 (37 °C). On to UAAUAGCAAUAUUACGAUUA, for which the “self-splicing fitness (ln)” value is -1.04 ± 0.13 (30 °C) and 0.0261 ± 0.14 (37 °C). For GGAAAGCAAUAUUACGCCCG, in that order: -0.767 ± 0.21 and -0.0766 ± 0.23. As for UGGAAGCAAUAUUACGGACC, the “self-splicing fitness (ln)” value reads like this: (30 °C) -0.695 ± 0.088; (37 °C) -0.372 ± 0.11. In the same order, the values of GAGCAGCAAUAUUACGGACG are -2.19 ± 0.42 and -1.72 ± 0.33. In the same order, the values of ACGCAGCAAUAUUACGAUAG are -4.2 ± 0.21 and -2.65 ± 0.19. CAGCAGCAAUAUUACGACGC: for the setting “37 °C”, the “self-splicing fitness (ln)” value was -1.5 ± 0.45. As to AACUAGCAAUAUUACGGGAG, the “self-splicing fitness (ln)” value is, setting by setting: (30 °C) -1.35 ± 0.11; (37 °C) -1.21 ± 0.13. On to GAUAAGCAAUAUUACGUCCC, for which the “self-splicing fitness (ln)” value is -0.291 ± 0.2 (30 °C) and -0.349 ± 0.25 (37 °C). For the sequence UCGUAGCAAUAUUACGCCAU, the “self-splicing fitness (ln)” value (37 °C) is -0.949 ± 0.45. CGCAAGCAAUAUUACGAAUA: the “self-splicing fitness (ln)” value was -3.27 ± 0.21 (30 °C) and -2.4 ± 0.2 (37 °C). For ACUAAGCAAUAUUACGCCGC, in that order: -3.02 ± 0.35 and -1.86 ± 0.41.

On to UGCCAGCAAUAUUACGGGAC, for which the “self-splicing fitness (ln)” value (30 °C) was -3.51 ± 0.34 and the “self-splicing fitness (ln)” value (37 °C) is -1.95 ± 0.3. In the same order, the values of CUGUAGCAAUAUUACGUUCA are -3.47 ± 0.24 and -1.45 ± 0.15. In the case of CGAAAGCAAUAUUACGCUAC, the “self-splicing fitness (ln)” value (30 °C) is -2.53 ± 0.3.

For AUUCAGCAAUAUUACGUGCC, the “self-splicing fitness (ln)” value is, setting by setting: (30 °C) -1.51 ± 0.1; (37 °C) -0.682 ± 0.14. For the sequence GUUAAGCAAUAUUACGGUAA, the “self-splicing fitness (ln)” value (30 °C) is -1.5 ± 0.15 and the “self-splicing fitness (ln)” value (37 °C) is -1.28 ± 0.14. Take GUAAAGCAAUAUUACGCGGG: the “self-splicing fitness (ln)” value reads like this: (30 °C) -1.74 ± 0.12; (37 °C) -2.08 ± 0.19. In the same order, the values of UUAUAGCAAUAUUACGCCAG are -1.64 ± 0.25 and -0.566 ± 0.27.

Consider GCCCAGCAAUAUUACGCACU, for which the “self-splicing fitness (ln)” value reads like this: (30 °C) -0.532 ± 0.075; (37 °C) 0.216 ± 0.12. With AUCGAGCAAUAUUACGCGAC, the “self-splicing fitness (ln)” value reads like this: (30 °C) -1.15 ± 0.22; (37 °C) -2.55 ± 0.4. In the same order, the values of AUGGAGCAAUAUUACGCCUA are -0.868 ± 0.14 and -0.981 ± 0.18. For GCGCAGCAAUAUUACGGGAU, the “self-splicing fitness (ln)” value is, setting by setting: (30 °C) -1.66 ± 0.1; (37 °C) -1.09 ± 0.12. As to CGAGAGCAAUAUUACGGAAA, the “self-splicing fitness (ln)” value (30 °C) was -1.65 ± 0.33.

In the case of GUGGAGCAAUAUUACGACGU, the “self-splicing fitness (ln)” value is, setting by setting: (30 °C) -1.15 ± 0.14; (37 °C) 0.0174 ± 0.16.

Regarding UAUUAGCAAUAUUACGCGAG, the “self-splicing fitness (ln)” value reads like this: (30 °C) -2.21 ± 0.2; (37 °C) -0.0781 ± 0.15. With ACUUAGCAAUAUUACGGGAU, the “self-splicing fitness (ln)” value (30 °C) is -2.08 ± 0.11 and the “self-splicing fitness (ln)” value (37 °C) is -0.352 ± 0.098.

Turning to AGGCAGCAAUAUUACGGUUG, the “self-splicing fitness (ln)” value (30 °C) is -3.28 ± 0.18 and the “self-splicing fitness (ln)” value (37 °C) is -1.46 ± 0.17.

As to GCCAAGCAAUAUUACGUCAA, the “self-splicing fitness (ln)” value (30 °C) was -2.75 ± 0.34 and the “self-splicing fitness (ln)” value (37 °C) was -1.97 ± 0.22. For ACGUAGCAAUAUUACGCGCA, in that order: -0.687 ± 0.076 and -0.337 ± 0.097. For UGAAAGCAAUAUUACGGGGC, in that order: -3.89 ± 0.23 and -2.73 ± 0.19. In the same order, the values of GUAAAGCAAUAUUACGGGGC are -3.07 ± 0.23 and -2.29 ± 0.15. As for UAAUAGCAAUAUUACGUGUA, the “self-splicing fitness (ln)” value was -2.19 ± 0.12 (30 °C) and -0.918 ± 0.1 (37 °C). In the same order, the values of GACCAGCAAUAUUACGUGGG are -3.64 ± 0.12 and -2.47 ± 0.12. For CAGAAGCAAUAUUACGCUGU, in that order: -4.53 ± 0.37 and -2.83 ± 0.21. In the same order, the values of UCACAGCAAUAUUACGUAAG are -1.98 ± 0.083 and -1.33 ± 0.1. As to GUUAAGCAAUAUUACGGAAC, the “self-splicing fitness (ln)” value (37 °C) was -1.43 ± 0.34. For the sequence AAAAAGCAAUAUUACGUCCU, the “self-splicing fitness (ln)” value is 0.148 ± 0.065 (30 °C) and 0.294 ± 0.079 (37 °C). As to UUAUAGCAAUAUUACGUAAA, the “self-splicing fitness (ln)” value (30 °C) was -1.34 ± 0.19 and the “self-splicing fitness (ln)” value (37 °C) was -1.58 ± 0.22.
